According to patent US20250043302A1, “MUTATED HYDROXYPHENYLPYRUVATE DIOXYGENASE POLYPEPTIDE, AND CODING GENE AND USE THEREOF” (BEIJING DABEINONG BIOTECHNOLOGY CO., LTD., priority 2021, published 2025):

Key:
[1] = test system: Arabidopsis thaliana T1 plants; experiment: Isoxaflutole tolerance of transgenic Arabidopsis thaliana T1 plants (spray, bleached leaf area grade, damage score); assay type: in vivo; conditions: 7 DAT, Table 2; for Scores: pesticide damage score 0-100;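 as to Scores: Weighted damage index from 0 to 100 where higher means more damage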
Method in brief: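 Damage graded 0–3 from the proportion of bleached leaf area 7 days after spraying. Plants were glufosinate-selected T1 lines, 18 days after sowing, plus vector and wild-type controls. Rates: mesotrione 52.5–420, isoxaflutole 35–280, topramezone 25–200 g ai/ha, with water (0×).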

[2] = test system: Arabidopsis thaliana T1 plants; experiment: Topramezone tolerance of transgenic Arabidopsis thaliana T1 plants (spray, bleached leaf area grade, damage score); assay type: in vivo; conditions: for Classification and statistics of the grade of pesticide damage: Grade 0 / Classification and statistics of the grade of pesticide damage: Grade 1 / Classification and statistics of the grade of pesticide damage: Grade 2 / Classification and statistics of the grade of pesticide damage: Grade 3: number of plants; for Grade 0 (classification and statistics of the grade of pesticide damage; number of plants) / Grade 1 (classification and statistics of the grade of pesticide damage; number of plants) / Grade 2 (classification and statistics of the grade of pesticide damage; number of plants) / Grade 3 (classification and statistics of the grade of pesticide damage; number of plants): 16 plants
Text: T1 transformants were initially selected from the untransformed seeds using a glufosinate selection scheme. The Arabidopsis thaliana T1 plants (AsHPPD-02) into which the AsHPPD-02 nucleotide sequence was introduced, the Arabidopsis thaliana T1 plants (AsHPPDm-F372A-02) into which the AsHPPDm-F372A-02 nucleotide sequence was introduced, the Arabidopsis thaliana T1 plants (AsHPPDm-F383W-02) into which the AsHPPDm-F383W-02 nucleotide sequence was introduced, the Arabidopsis thaliana T1 plants (AsHPPDm-F372A-F383W-02) into which the AsHPPDm-F372A-F383W-02 nucleotide sequence was introduced, the Arabidopsis thaliana T1 plants (DBN11726N) into which the control recombinant expression vector DBN11726N was introduced, and the wild-type Arabidopsis thaliana plants (CK) (18 days after sowing) were sprayed respectively with topramezone at three concentrations (100 g ai/ha (four-fold field concentration, 4×), 200 g ai/ha (eight-fold field concentration, 8×), and 0 g ai/ha (water, 0×)), isoxaflutole at three concentrations (140 g ai/ha (two-fold field concentration, 2×), 280 g ai/ha (four-fold field concentration, 4×), and 0 g ai/ha (water, 0×)), and mesotrione at three concentrations (210 g ai/ha (two-fold field concentration, […]), 420 g ai/ha (four-fold field concentration, 4×), and 0 g ai/ha (water, 0×)), to determine the tolerance of Arabidopsis thaliana to the herbicides. The degree of damage caused by the herbicide was measured for each plant according to the proportion of bleached leaf area (the proportion of bleached leaf area=bleached leaf area/total leaf area×100%) 7 days after spraying (7 DAT): the case where there is basically no bleached phenotype is defined as grade 0, the case where the proportion of bleached leaf area is less than 50% is defined as grade 1, the case where the proportion of bleached leaf area is more than 50% is defined as grade 2, and the case where the proportion of bleached leaf area is 100% grade is defined as grade 3.
According to the method as described above in point 6 of Example 1, the aforementioned Arabidopsis thaliana T1 plants and wild-type Arabidopsis thaliana plants (CK) (18 days after sowing) were sprayed respectively with topramezone at three concentrations (25 g ai/ha (one-fold field concentration, 1×). 100 g ai/ha (four-fold field concentration, 4×), and 0 g ai/ha (water, 0×)), isoxaflutole at three concentrations (35 g ai/ha (half-fold field concentration, 0.5×). 70 g ai/ha (one-fold field concentration, 1×), and 0 g ai/ha (water, 0×)), and mesotrione at three concentrations (52.5 g ai/ha (half-fold field concentration, 0.5×), 105 g ai/ha (one-fold field concentration, 1×), and 0 g ai/ha (water, 0×)) to detect the tolerance of Arabidopsis thaliana to the herbicides.
According to the method as described above in point 6 of Example 1, the aforementioned Arabidopsis thaliana T1 plants and wild-type Arabidopsis thaliana plants (CK) (18 days after sowing) were sprayed with topramezone at three different concentrations (i.e., 100 g ai/ha (four-fold field concentration, 4×), 200 g ai/ha (eight-fold field concentration, 8×) and 0 g ai/ha (water, 0×)), isoxaflutole at three different concentrations (i.e., 140 g ai/ha (two-fold field concentration, 2×), 280 g ai/ha (four-fold field concentration, 4×) and 0 g ai/ha (water, 0×)), and mesotrione at three different concentrations (i.e., 210 g ai/ha (two-fold field concentration, 2×), 420 g ai/ha (four-fold field concentration, 4×) and 0 g ai/ha (water, 0×)) respectively to detect the herbicide tolerance of Arabidopsis thaliana. […]

[3] = number of plants, isoxaflutole 140 g ai/ha (2×)
[4] = number of plants, isoxaflutole 280 g ai/ha (4×)
[5] = topramezone 100 g ai/ha (4×), 7 DAT, Table 1
[6] = topramezone 200 g ai/ha (8×), 7 DAT, Table 1
[7] = topramezone 100 g ai/ha (4x field concentration), Arabidopsis thaliana T1 plants
[8] = topramezone 200 g ai/ha (8x field concentration), Arabidopsis thaliana T1 plants

B1: AsHPPDm-F383W-02: nucleotide sequence encoding Avena sativa HPPD with F383W; vector DBN11729 (nucleic acid)
DNA: ATGCCACCTACTCCAGCTACAGCTACTGGTGCTGCTGCTGCTGCCGTTACTCCTGAGCACGCTGCCAGGTCATTCCCCAGGGTGGTTCGCGTGAACCCCAGATCTGATAGGTTCCCAGTTCTGAGCTTCCACCATGTTGAGCTGTGGTGCGCTGATGCTGCTTCTGCTGCTGGCAGGTTCTCTTTCGCTCTTGGTGCTCCACTCGCTGCTAGATCTGATCTGTCTACAGGAAATAGCGCTCATGCCTCACTCCTGCTTCGCTCAGGTGCTTTGGCCTTCCTCTTCACCGCTCCATATGCTCCCCCACCTCAGGAGGCTGCTACTGCTGCTGCTACAGCCTCCATTCCAAGCTTCTCAGCTGATGCCGCTAGAACCTTCGCTGCTGCTCATGGACTTGCCGTGAGGTCTGTTGGTGTTCGCGTGGCTGATGCTGCTGAGGCTTTCAGAGTTTCCGTTGCCGGCGGAGCTAGGCCAGCTTTCGCTCCTGCTGATTTGGGACATGGTTTCGGCCTGGCTGAGGTTGAGCTTTACGGTGACGTGGTTCTCCGCTTCGTGTCTTACCCAGATGAGACTGACCTGCCTTTCCTTCCCGGCTTCGAGAGAGTTTCCTCTCCTGGTGCCGTGGATTACGGCCTGACAAGGTTCGACCACGTGGTTGGAAACGTTCCCGAGATGGCTCCAGTGATCGATTACATGAAGGGCTTCCTTGGATTCCATGAGTTCGCCGAGTTCACTGCTGAGGACGTGGGAACCACTGAGTCCGGTTTGAACTCTGTGGTTCTCGCCAACAATTCTGAGGCTGTTTTGCTCCCTCTGAATGAGCCTGTGCATGGAACCAAGAGGAGAAGCCAGATTCAAACTTACCTGGAGTACCACGGTGGCCCTGGAGTTCAGCATATCGCCCTTGCTTCTAATGATGTGTTGCGCACACTCAGAGAGATGCGCGCCAGAACCCCCATGGGAGGTTTCGAGTTCATGGCCCCACCACAGGCTAAGTACTACGAGGGCGTTAGAAGGATTGCTGGAGACGTGTTGAGCGAGGAGCAGATCAAGGAGTGCCAAGAGCTGGGTGTTCTTGTGGATAGGGATGACCAGGGCGTTCTGCTTCAAATTTTCACTAAGCCAGTGGGCGACCGCCCTACATTCTGGCTTGAGATGATTCAAAGAATCGGCTGCATGGAGAAGGATGAGGTTGGACAGGAGTACCAAAAGGGCGGATGCGGTGGCTTCGGAAAGGGTAACTTCAGCGAGTTGTTCAAGTCAATCGAGGACTACGAGAAGAGCCTCGAGGTGAAGCAGTCAGTGGTTGCCCAAAAGTCCTGA
modifications: AsHPPDm-F383W-02 Nucleotide Sequence
notes: vector DBN11729
Classification and statistics of the grade of pesticide damage: Grade 1 [1, 3]: 10
Classification and statistics of the grade of pesticide damage: Grade 2 [1, 3]: 0
Classification and statistics of the grade of pesticide damage: Grade 3 [1, 3]: 0
Classification and statistics of the grade of pesticide damage: Grade 0 [1, 4]: 4
Classification and statistics of the grade of pesticide damage: Grade 1 [1, 4]: 4
Classification and statistics of the grade of pesticide damage: Grade 2 [1, 4]: 8
Classification and statistics of the grade of pesticide damage: Grade 3 [1, 4]: 0
Scores ([1]; isoxaflutole 140 g ai/ha (2×)): 21
Scores ([1]; isoxaflutole 280 g ai/ha (4×)): 42
Classification and statistics of the grade of pesticide damage: Grade 0 [2, 5]: 16
Classification and statistics of the grade of pesticide damage: Grade 1 [2, 5]: 0
Classification and statistics of the grade of pesticide damage: Grade 2 [2, 5]: 0
Classification and statistics of the grade of pesticide damage: Grade 3 [2, 5]: 0
Classification and statistics of the grade of pesticide damage: Grade 0 [2, 6]: 16
Classification and statistics of the grade of pesticide damage: Grade 1 [2, 6]: 0
Classification and statistics of the grade of pesticide damage: Grade 2 [2, 6]: 0
Classification and statistics of the grade of pesticide damage: Grade 3 [2, 6]: 0
Scores ([2]; pesticide damage score 0-100, topramezone 100 g ai/ha (4×), 7 DAT, Table 1): 0
Scores ([2]; pesticide damage score 0-100, topramezone 200 g ai/ha (8×), 7 DAT, Table 1): 0
Resistance evaluation [2, 7]: Highly resistant
Scores [2, 7]: 0
Grade 0 (classification and statistics of the grade of pesticide damage; number of plants) [2, 7]: 16
Grade 1 (classification and statistics of the grade of pesticide damage; number of plants) [2, 7]: 0
Grade 2 (classification and statistics of the grade of pesticide damage; number of plants) [2, 7]: 0
Grade 3 (classification and statistics of the grade of pesticide damage; number of plants) [2, 7]: 0
Resistance evaluation [2, 5]: highly resistant (highly resistant plants (scores 0-15))
Resistance evaluation [2, 8]: Highly resistant
Scores [2, 8]: 0
Grade 0 (classification and statistics of the grade of pesticide damage; number of plants) [2, 8]: 16
Grade 1 (classification and statistics of the grade of pesticide damage; number of plants) [2, 8]: 0
Grade 2 (classification and statistics of the grade of pesticide damage; number of plants) [2, 8]: 0
Grade 3 (classification and statistics of the grade of pesticide damage; number of plants) [2, 8]: 0
Resistance evaluation [2, 6]: highly resistant (highly resistant plants (scores 0-15))
tolerance to topramezone (resistance class) ([2]; topramezone at four-fold or eight-fold field concentration): highly-resistant
